{"source": "paper doi:10.1101/2020.10.16.20213991", "about": "(medRxiv, 2020)", "proteins": {"B1": {"name": "cowpea chlorotic mottle virus (CCMV) coat protein (natural protein)", "chain": "MSTVGTGKLTRAQRRAAARKNKRNTRVVQPVIVEPIASGQGKAIKAWTGYSVSKWTASCAAAEAKVTSAITISLPNELSSERNKQLKVGRVLLWLGLLPSVSGTVKSCVTETQTTAAASFQVALAVADNSKDVVAAMYPEAFKGITLEQLTADLTIYLYSSAALTEGDVIVHLEVEHVRPTFDDSFTPVY"}}, "molecular_target": "the molecule itself", "assay": "SEC", "data": [{"protein": "B1", "values": [{"measurement": "binding result", "value": "binds"}]}]}
